{"source": "patent US10011602B2", "about": "“Immunological reagents and uses therefor” (THE UNIVERSITY OF MELBOURNE, priority 2012, dated 2018)", "molecules": {"B1": {"name": "mouse MR1-rRL-6-CH2OH tetramers: tetramers from mouse wild-type MR1-rRL-6-CH2OH (C-terminal cysteine) (protein, UniProt Q8HWB0 19-341; P01887 21-119, looked up)", "Major histocompatibility …": "RTHSLRYFRLAVSDPGPVVPEFISVGYVDSHPITTYDSVTRQKEPKAPWMAENLAPDHWERYTQLLRGWQQTFKAELRHLQRHYNHSGLHTYQRMIGCELLEDGSTTGFLQYAYDGQDFIIFNKDTLSWLAMDYVAHITKQAWEANLHELQYQKNWLEEECIAWLKRFLEYGRDTLERTEHPVVRTTRKETFPGITTFFCRAHGFYPPEISMTWMKNGEEIAQEVDYGGVLPSGDGTYQTWLSVNLDPQSNDVYSCHVEHCGRQMVLEAPRESGDILRVSTISGTTILIIALAGVGVLIWRRSQELKEVMYQPTQVNEGSSPS", "Beta-2-microglobulin": "IQKTPQIQVYSRHPPENGKPNILNCYVTQFHPPHIEIQMLKNGKKIPKVEMSDMSFSKDWSFYILAHTEFTPTETDTYACRVKHASMAEPKTVYWDRDM", "modifications": "rRL-6-CH2OH ligand; C-terminal cysteine; tetramer"}}, "key": {"control BW cells": {"system": "control BW cells", "assay": "MR1 tetramer staining of control BW cells", "assay_type": "cell-based, mouse", "text": "(§1) Wild-type human MR1 containing a C-terminal cysteine can be refolded with the addition of 5-amino-6-D-ribitylamino-uracil and pyruvaldehyde, using the standard refolding conditions described above, and then purified using the standard methods also described above. MR1 refolded in this way has rRL-6-CH2OH bound as determined by X-ray crystallography structural studies, and by electrospray ionization time-of-flight (ESI TOF) mass spectrometry. […] Excess biotin is removed by passing biotinylated protein through an S200 10/300 GL (Healthcare) gel filtration column in Tris buffered saline (pH 8.0), prior to formation of tetramers by addition to PE Streptavidin (#554061, BD Pharmingen). […] In the same manner human MR1 containing a C-terminal cysteine can be refolded with the addition of 5-amino-6-D-ribitylamino-uracil, and subsequently purified by fast protein liquid chromatography (FPLC) to yield MR1 refolded with a novel ribityllumazine metabolite, reduced 7-hydroxy-ribityllumazine (rRL-7-OH). The identity of rRL-7-OH bound to MR1 was confirmed by ESI TOF mass spectrometry, and by determining its structure using X-ray crystallography. The identity of rRL-7-OH bound to MR1 was also confirmed by refolding wild-type MR1 with 5-amino-6-D-ribitylamino-uracil and ^13C-glycolaldehyde to yield MR1-^13C-rRL-7-OH."}, "MAIT TCR-BW hybridomas": {"system": "MAIT TCR-BW hybridomas", "assay": "MR1 tetramer staining of MAIT TCR-BW hybridomas", "assay_type": "cell-based", "conditions": "hybridomas from mouse Vα19iTG splenocytes fused with BW cell line", "text": "as §1"}}, "data": [{"molecule": "B1", "values": [{"measurement": "Tetramer staining of control BW cells", "setting": "control BW cells", "value": "not"}, {"measurement": "Tetramer staining of MAIT TCR-BW hybridomas", "setting": "MAIT TCR-BW hybridomas", "value": "stain"}]}]}
